Measured values: PMC10613257 (2023)

Target: insulin-like growth factor binding protein 5 (IGFBP5), full length, wild type (UniProt P24593 21-272, labelled with FAM-maleimide, 6-isomer after reduction with TCEP (in the fluorescence polarisation assay))
Test: FP

Sequence of insulin-like growth factor binding protein 5 (IGFBP5), full length, wild type (P24593 21-272): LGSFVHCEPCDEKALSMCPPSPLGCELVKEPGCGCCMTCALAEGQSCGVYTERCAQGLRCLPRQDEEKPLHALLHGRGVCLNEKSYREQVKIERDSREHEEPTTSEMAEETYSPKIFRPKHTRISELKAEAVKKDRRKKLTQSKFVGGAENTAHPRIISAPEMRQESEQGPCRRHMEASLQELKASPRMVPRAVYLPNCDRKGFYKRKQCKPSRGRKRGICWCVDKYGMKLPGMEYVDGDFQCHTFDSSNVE

Kd: 237 nM
B1: PAPP-A E483A (catalytically inactive) (enzyme)
chain: REARGATEEPSPPSRALYFSGRGEQLRLRADLELPRDAFTLQVWLRAEGGQRSPAVITGLYDKCSYISRDRGWVVGIHTISDQDNKDPRYFFSLKTDRARQVTTINAHRSYLPGQWVYLAATYDGQFMKLYVNGAQVATSGEQVGGIFSPLTQKCKVLMLGGSALNHNYRGYIEHFSLWKVARTQREILSDMETHGAHTALPQLLLQENWDNVKHAWSPMKDGSSPKVEFSNAHGFLLDTSLEPPLCGQTLCDNTEVIASYNQLSSFRQPKVVRYRVVNLYEDDHKNPTVTREQVDFQHHQLAEAFKQYNISWELDVLEVSNSSLRRRLILANCDISKIGDENCDPECNHTLTGHDGGDCRHLRHPAFVKKQHNGVCDMDCNYERFNFDGGECCDPEITNVTQTCFDPDSPHRAYLDVNELKNILKLDGSTHLNIFFAKSSEEELAGVATWPWDKEALMHLGGIVLNPSFYGMPGHTHTMIHAIGHSLGLYHVFRGISEIQSCSDPCMETEPSFETGDLCNDTNPAPKHKSCGDPGPGNDTCGFHSFFNTPYNNFMSYADDDCTDSFTPNQVARMHCYLDLVYQGWQPSRKPAPVALAPQVLGHTTDSVTLEWFPPIDGHFFERELGSACHLCLEGRILVQYASNASSPMPCSPSGHWSPREAEGHPDVEQPCKSSVRTWSPNSAVNPHTVPPACPEPQGCYLELEFLYPLVPESLTIWVTFVSTDWDSSGAVNDIKLLAVSGKNISLGPQNVFCDVPLTIRLWDVGEEVYGIQIYTLDEHLEIDAAMLTSTADTPLCLQCKPLKYKVVRDPPLQMDVASILHLNRKFVDMDLNLGSVYQYWVITISGTEESEPSPAVTYIHGSGYCGDGIIQKDQGEQCDDMNKINGDGCSLFCRQEVSFNCIDEPSRCYFHDGDGVCEEFEQKTSIKDCGVYTPQGFLDQWASNASVSHQDQQCPGWVIIGQPAASQVCRTKVIDLSEGISQHAWYPCTISYPYSQLAQTTFWLRAYFSQPMVAAAVIVHLVTDGTYYGDQKQETISVQLLDTKDQSHDLGLHVLSCRNNPLIIPVVHDLSQPFYHSQAVRVSFSSPLVAISGVALRSFDNFDPVTLSSCQRGETYSPAEQSCVHFACEKTDCPELAVENASLNCSSSDRYHGAQCTVSCRTGYVLQIRRDDELIKSQTGPSVTVTCTEGKWNKQVACEPVDCSIPDHHQVYAASFSCPEGTTFGSQCSFQCRHPAQLKGNNSLLTCMEDGLWSFPEALCELMCLAPPPVPNADLQTARCRENKHKVGSFCKYKCKPGYHVPGSSRKSKKRAFKTQCTQDGSWQEGACVPVTCDPPPPKFHGLYQCTNGFQFNSECRIKCEDSDASQGLGSNVIHCRKDGTWNGSFHVCQEMQGQCSVPNELNSNLKLQCPDGYAIGSECATSCLDHNSESIILPMNVTVRDIPHWLNPTRVERVVCTAGLKWYPHPALIHCVKGCEPFMGDNYCDAINNRAFCNYDGGDCCTSTVKTKKVTPFPMSCDLQGDCACRDPQAQEHSRKDLRGYSHG
